Assay [1] has as its target T1, α-cobratoxin (Naja kaouthia, UniProt P01391 1-71). The assay can be described thus: fluorescence polarisation. As to conditions: both partners purified.
Assay [2] deals with T1, α-cobratoxin. Nature of the assay: fluorescence polarisation. As to conditions: both partners purified. The source holds these as a separate data set. In general terms: Fluorescence polarisation rises when a labelled molecule tumbles more slowly, as on binding a larger partner.

From article PMC7705965 (Journal of Medicinal Chemistry, 2020) come the findings set out here.

Primed or numbered codes have the meaning given here. Where no end group is shown, it is not given here. [ ]: non-standard residue; d: D form. TAMRA = 5(6)-carboxytetramethylrhodamine; PEG6′ = [PEG]6, polyethylene glycol

T1 sequence (P01391 whole entry): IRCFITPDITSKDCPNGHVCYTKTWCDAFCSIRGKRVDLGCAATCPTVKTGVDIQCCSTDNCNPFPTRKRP

Turning to {TAMRA}-HAKTYMWDGWYMPTSH-NH2 [peptide 9 (TAMRA-HAKTYMWDGWYMPTSH-NH2)], the dissociation constant (Kd) – broadly, a measure of binding affinity in units of concentration – in the assay with α-cobratoxin [1] was determined as 52 µM. In the case of Ac-HAKTYMWDGWYMPTSH-NH2 [peptide 1 (Ac-HAKTYMWDGWYMPTSH-NH2)], 29 µM corresponded to half-maximal inhibition in the assay with α-cobratoxin [2] (IC50). In the assay with α-cobratoxin [1], the inhibitory constant (Ki) (usually the equilibrium dissociation constant of an inhibitor or competing ligand from its target) worked out at 2 µM.

For the molecule [PEG6′]YMWDGWYM-NH2 [peptide 12 ([PEG]6-YMWDGWYM-NH2)], the Ki with α-cobratoxin [1] was determined as 26 µM.
